Assay in all cases: cytokine release
The target in experiment [1] is T1, TPTE peptide on HLA-B*35:01 (human).
T1 peptide: YPSDFAVEI

The target in experiment [2] is NY-ESO-1 peptide on HLA-DRB1*11:01 (human).
Experiment [3] concerns the target NY-ESO-1 peptide on HLA-DRB1*16:01 (human).
In experiment [4] the target is T2, NY-ESO-1 peptide on HLA-DRB1*04:01 (human).
T2 peptide: CFLPVFLAQPPSGQRR

For experiment [5], the target named is T3, NY-ESO-1 peptide on HLA-DRB5*02:02 (human).
T3 peptide: SGNILTIRLTAADHRQLQL

For experiment [6], the target named is T4, TPTE peptide on HLA-DRB1*13:01 (human).
T4 peptide: IFFDIKLLRNIPRWTHLLR

In experiment [7] the target is T5, hCMV pp65 peptide on HLA-DRB1*07:01 (human).
T5 peptide: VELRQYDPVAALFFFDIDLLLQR

Experiment [8] has as its target T6, TPTE peptide on HLA-DRB3*03:01 (human).
T6 peptide: IKLLRNIPRWTHLLR

The target of experiment [9] is T7, TPTE peptide on HLA-DRB4*01:01 (human).
T7 peptide: NWNLPPRRILFIKHFIIYS

For experiment [10], the target named is T8, TPTE peptide on HLA-DRB1*14:01 (human).
T8 peptide: KHFIIYSIPRYVRDLKIQI

Experiment [11] deals with T9, TPTE peptide on HLA-DRB5*02:02 (human).
T9 peptide: KLIRRRVSENKRRYT

For experiment [12], the target named is T10, TPTE peptide on HLA-DRB1*07:01 (human).
T10 peptide: ILADLIFTDSKLYIPLEYR

The target in experiment [13] is T11, TPTE peptide on HLA-DRB5*02:02 (human).
T11 peptide: IFFDIKLLRNIPRWTHLLR

In experiment [14] the target is NY-ESO-1 peptide on HLA-DRB1*04:01 (human). The source holds these as a separate data set.
In experiment [15] the target is T12, TPTE peptide on HLA-DRB1*16:01 (human).
T12 peptide: NHYRVYNLCSERAYD

Experiment [16] deals with T13, TPTE peptide on HLA-DRB1*14:01 (human).
T13 peptide: WLHTSFIENNRLYLPKNEL

The target in experiment [17] is T14, TPTE peptide on HLA-DRB1*14:01 (human).
T14 peptide: SPISESVLARLSKFEVEDA

Experiment [18] addresses T15, hCMV pp65 peptide on HLA-DRB1*07:01 (human).
T15 peptide: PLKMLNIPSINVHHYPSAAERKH

B1: TCRCD8-TPT#3 (TCR, V domains shown)
Valpha: TQLLEQSPQFLSIQEGENLTVYCNSSSVFSSLQWYRQEPGEGPVLLVTVVTGGEVKKLKRLTFQFGDARKDSSLHITAAQPGDTGLYLCAGAQGQKLLFARGTMLKVDL
Vbeta: DTGVSQNPRHKITKRGQNVTFRCDPISEHNRLYWYRQTLGQGPEFLTYFQNEAQLEKSRLLSDRFSAERPKGSFSTLEIQRTEQGDSAMYLCASSHLAGGNTGELFFGEGSRLTVL
For B1, the binding result in experiment [1] was “recognises”.

B2: TCRCD4-NY#7 (TCR, V domains shown)
Valpha: AQSVTQLDSQVPVFEEAPVELRCNYSSSVSVYLFWYVQYPNQGLQLLLKYLSGSTLVKGINGFEAEFNKSQTSFHLRKPSVHISDTAEYFCAVSKSGGYQKVTFGTGTKLQVIP
Vbeta: GAVVSQHPSWVICKSGTSVKIECRSLDFQATTMFWYRQFPKQSLMLMATSNEGSKATYEQGVEKDKFLINHASLTLSTLTVTSAHPEDSSFYICSAAPGLAGGQGGSQYFGPGTRLLVL
Regarding B2, the binding result in experiment [2] and in experiment [3] was “recognises” throughout.

B3: TCRCD4-NY#1 (TCR, V domains shown)
Valpha: GIQVEQSPPDLILQEGANSTLRCNFSDSVNNLQWFHQNPWGQLINLFYIPSGTKQNGRLSATTVATERYSLLYISSSQTTDSGVYFCAVNDYKLSFGAGTTVTVRA
Vbeta: DSGVTQTPKHLITATGQRVTLRCSPRSGDLSVYWYQQSLDQGLQFLIQYYNGEERAKGNILERFSAQQFPDLHSELNLSSLELGDSALYFCASSPGVSGTTEAFFGQGTRLTVV
Consider B3, for which the binding result in experiment [4] is reported as “recognises”.

B4: TCRCD4-NY#13 (TCR, V domains shown)
Valpha: KQEVTQIPAALSVPEGENLVLNCSFTDSAIYNLQWFRQDPGKGLTSLLLIQSSQREQTSGRLNASLDKSSGRSTLYIAASQPGDSATYLCAVPTDSWGKLQFGAGTQVVVTP
Vbeta: DTGVSQDPRHKITKRGQNVTFRCDPISEHNRLYWYRQTLGQGPEFLTYFQNEAQLEKSRLLSDRFSAERPKGSFSTLEIQRTEQGDSAMYLCASSSKLTGIPEGTDTQYFGPGTRLTVL
Regarding B4, the binding result in experiment [5] is listed as “recognises”.

B5: TCRCD4-TPT#55 (TCR, V domains shown)
Valpha: AQTVTQSQPEMSVQEAETVTLSCTYDTSESDYYLFWYKQPPSRQMILVIRQEAYKQQNATENRFSVNFQKAAKSFSLKISDSQLGDAAMYFCAYRSAVYNTDKLIFGTGTRLQVFP
Vbeta: KAGVTQTPRYLIKTRGQQVTLSCSPISGHRSVSWYQQTPGQGLQFLFEYFSETQRNKGNFPGRFSGRQFSNSRSEMNVSTLELGDSALYLCASSFSSYNEQFFGPGTRLTVL
Take B5: the binding result in experiment [6] is “recognises”.

B6: TCRCD4-CMV#5 (TCR, V domains shown)
Valpha: GIQVEQSPPDLILQEGANSTLRCNFSDSVNNLQWFHQNPWGQLINLFYIPSGTKQNGRLSATTVATERYSLLYISSSQTTDSGVYFCAAGSNTGNQFYFGTGTSLTVIP
Vbeta: NAGVTQTPKFRVLKTGQSMTLLCAQDMNHEYMYWYRQDPGMGLRLIHYSVGEGTTAKGEVPDGYNVSRLKKQNFLLGLESAAPSQTSVYFCASSSRGYGTDTQYFGPGTRLTVL
Regarding B6, the binding result in experiment [7] is on record as “recognises”.

B7: TCRCD4-TPT#27 (TCR, V domains shown)
Valpha: GENVEQHPSTLSVQEGDSAVIKCTYSDSASNYFPWYKQELGKRPQLIIDIRSNVGEKKDQRIAVTLNKTAKHFSLHITETQPEDSAVYFCAALYSGGGADGLTFGKGTHLIIQP
Vbeta: DGGITQSPKYLFRKEGQNVTLSCEQNLNHDAMYWYRQDPGQGLRLIYYSQIVNDFQKGDIAEGYSVSREKKESFPLTVTSAQKNPTAFYLCASSIGGGVNTEAFFGQGTRLTVV
Consider B7, for which, in experiment [8], the binding result is recorded as “recognises”.

B8: TCRCD4-TPT#4 (TCR, V domains shown)
Valpha: AQKITQTQPGMFVQEKEAVTLDCTYDTSDPSYGLFWYKQPSSGEMIFLIYQGSYDQQNATEGRYSLNFQKARKSANLVISASQLGDSAMYFCATASNFGNEKLTFGTGTRLTIIP
Vbeta: SAVISQKPSRDICQRGTSLTIQCQVDSQVTMMFWYRQQPGQSLTLIATANQGSEATYESGFVIDKFPISRPNLTFSTLTVSNMSPEDSSIYLCSVDRDREDGYTFGSGTRLTVV
As to B8, in experiment [9], the binding result is listed as “recognises”.

B9: TCRCD4-TPT#5 (TCR, V domains shown)
Valpha: AQTVTQSQPEMSVQEAETVTLSCTYDTSESDYYLFWYKQPPSRQMILVIRQEAYKQQNATENRFSVNFQKAAKSFSLKISDSQLGDAAMYFCAYSRTSGTYKYIFGTGTRLKVLA
Vbeta: ETGVTQTPRHLVMGMTNKKSLKCEQHLGHNAMYWYKQSAKKPLELMFVYNFKEQTENNSVPSRFSPECPNSSHLFLHLHTLQPEDSALYLCASSQEISGSSYEQYFGPGTRLTVT
As for B9, the binding result in [10] was “recognises”.

B10: TCRCD4-TPT#33 (TCR, V domains shown)
Valpha: DQQVKQNSPSLSVQEGRISILNCDYTNSMFDYFLWYKKYPAEGPTFLISISSIKDKNEDGRFTVFLNKSAKHLSLHIVPSQPGDSAVYFCAARSYGGSQGNLIFGKGTKLSVKP
Vbeta: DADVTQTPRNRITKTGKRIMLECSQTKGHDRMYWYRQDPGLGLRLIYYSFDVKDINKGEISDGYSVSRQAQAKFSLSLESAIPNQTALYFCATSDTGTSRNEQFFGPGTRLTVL
In the case of B10, the binding result in experiment [11] is listed as “recognises”.

B11: TCRCD4-TPT#11 (TCR, V domains shown)
Valpha: SQQGEEDPQALSIQEGENATMNCSYKTSINNLQWYRQNSGRGLVHLILIRSNEREKHSGRLRVTLDTSKKSSSLLITASRAADTASYFCAGYNTNAGKSTFGDGTTLTVKP
Vbeta: NAGVTQTPKFRILKIGQSMTLQCAQDMNHNYMYWYRQDPGMGLKLIYYSVGAGITDKGEVPNGYNVSRSTTEDFPLRLELAAPSQTSVYFCASSFGQVWADTQYFGPGTRLTVL
Turning to B11, the binding result in experiment [12] is “recognises”.

B12: TCRCD4-TPT#87 (TCR, V domains shown)
Valpha: ELKVEQNPLFLSMQEGKNYTIYCNYSTTSDRLYWYRQDPGKSLESLFVLLSNGAVKQEGRLMASLDTKARLSTLHITAAVHDLSATYFCAVDMWNNNARLMFGDGTQLVVKP
Vbeta: KAGVTQTPRYLIKTRGQQVTLSCSPISGHRSVSWYQQTPGQGLQFLFEYFSETQRNKGNFPGRFSGRQFSNSRSEMNVSTLELGDSALYLCASSLAQSGANVLTFGAGSRLTVL
As for B12, the binding result in [6] is “recognises”.

B13: TCRCD4-TPT#17 (TCR, V domains shown)
Valpha: DQQVKQNSPSLSVQEGRISILNCDYTNSMFDYFLWYKKYPAEGPTFLISISSIKDKNEDGRFTVFLNKSAKHLSLHIVPSQPGDSAVYFCAASPNTGNQFYFGTGTSLTVIP
Vbeta: GAGVSQSPSNKVTEKGKDVELRCDPISGHTALYWYRQSLGQGLEFLIYFQGNSAPDKSGLPSDRFSAERTGGSVSTLTIQRTQQEDSAVYLCASSLTGGPYEQYFGPGTRLTVT
Regarding B13, the binding result in experiment [13] is “recognises”.

B14: TCRCD4-NY#3 (TCR, V domains shown)
Valpha: QKEVEQDPGPLSVPEGAIVSLNCTYSNSAFQYFMWYRQYSRKGPELLMYTYSSGNKEDGRFTAQVDKSSKYISLFIRDSQPSDSATYLCAMSKGAQKLVFGQGTRLTINP
Vbeta: EAGVAQSPRYKIIEKRQSVAFWCNPISGHATLYWYQQILGQGPKLLIQFQNNGVVDDSQLPKDRFSAERLKGVDSTLKIQPAKLEDSAVYLCASSLGDSNTGELFFGEGSRLTVL
As for B14, the binding result in [14] is on record as “recognises”.

B15: TCRCD4-CMV#3 (TCR, V domains shown)
Valpha: AQSVTQLDSQVPVFEEAPVELRCNYSSSVSVYLFWYVQYPNQGLQLLLKYLSGSTLVKGINGFEAEFNKSQTSFHLRKPSVHISDTAEYFCAVSSYGSSNTGKLIFGQGTTLQVKP
Vbeta: NAGVTQTPKFQVLKTGQSMTLQCAQDMNHNSMYWYRQDPGMGLRLIYYSASEGTTDKGEVPNGYNVSRLNKREFSLRLESAAPSQTSVYFCASSTAGGRNYGYTFGSGTRLTVV
As to B15, the binding result in experiment [7] is on record as “recognises”.

B16: TCRCD4-TPT#38 (TCR, V domains shown)
Valpha: ELKVEQNPLFLSMQEGKNYTIYCNYSTTSDRLYWYRQDPGKSLESLFVLLSNGAVKQEGRLMASLDTKARLSTLHITAAVHDLSATYFCAVGFRGSTLGRLYFGRGTQLTVWP
Vbeta: DAGVTQSPTHLIKTRGQHVTLRCSPISGHKSVSWYQQVLGQGPQFIFQYYEKEERGRGNFPDRFSARQFPNYSSELNVNALLLGDSALYLCASSWGQGNEKLFFGSGTQLSVL
As for B16, the binding result in [15] is listed as “recognises”.

B17: TCRCD4-TPT#13 (TCR, V domains shown)
Valpha: EDQVTQSPEALRLQEGESSSLNCSYTVSGLRGLFWYRQHPGKGPEFLFTLYSAGEEKEKERLKATLTKKESFLHITAPKPEDSATYLCAVQASNSGNTPLVFGKGTRLSVIA
Vbeta: DGGITQSPKYLFRKEGQNVTLSCEQNLNHDAMYWYRQDPGQGLRLIYYSQIVNDFQKGDIAEGYSVSREKKESFPLTVTSAQKNPTAFYLCASSAPHQRGTNEQFFGPGTRLTVL
B17: in experiment [16], the binding result was “recognises”.

B18: TCRCD4-TPT#6 (TCR, V domains shown)
Valpha: QKEVEQDPGPLSVPEGAIVSLNCTYSNSAFQYFMWYRQYSRKGPELLMYTYSSGNKEDGRFTAQVDKSSKYISLFIRDSQPSDSATYLCAMSAVSFGNVLHCGSGTQVIVLP
Vbeta: ETGVTQSPTHLIKTRGQQVTLRCSSQSGHNTVSWYQQALGQGPQFIFQYYREEENGRGNFPPRFSGLQFPNYSSELNVNALELDDSALYLCASSFGENTIYFGEGSWLTVV
In the case of B18, the binding result in experiment [17] is listed as “recognises”.

B19: TCRCD4-CMV#1 (TCR, V domains shown)
Valpha: KQEVTQIPAALSVPEGENLVLNCSFTDSAIYNLQWFRQDPGKGLTSLLLIQSSQREQTSGRLNASLDKSSGRSTLYIAASQPGDSATYLCAVKDNDMRFGAGTRLTVKP
Vbeta: DTAVSQTPKYLVTQMGNDKSIKCEQNLGHDTMYWYKQDSKKFLKIMFSYNNKELIINETVPNRFSPKSPDKAHLNLHINSLELGDSAVYFCASSQEKRGAFFGQGTRLTVV
Consider B19, for which the binding result in experiment [18] is “recognises”.

The values are drawn from US20190060430A1 (published 2019).
